Laboratory results reported in the DeepSol protein solubility set.

Assay: soluble on expression in E. coli; label from the status in PepcDB or PDB records

Row | Sequence | soluble on expression in E. coli
1 | MGSDKIHHHHHHETLRAFQRKAYESTEKTNCVCFFIQEALEIAENLEHLATDPNYQKPPLFGVPVSIKESIHVKNLDSTAGYAQKINNPSDANSVSVDQLIRLGAVPFVHTNIPIALLSYGCSNGVYGTTLNPLDNSRVPGGSSGGEAALVSLGGSVLGIGTDVGGSIRTPASFCGLAGFKSSSDRSPQLGKTASIPGRQLLLSVEGPIAKNIDVCVEYLRLKWNDPLLYKKDVYMPPVKFQENLYNSEKPLKIGYYTFDGYQTASPAYQRAVRETVAVLKELGHELVPFEVPQPDHMYSIFCAGATADGGLYLMDSLANDIIPPEADIGFPVAKLPHFIQRLLRKYWHHRRERQIIQELPHDTEEMRQMHEKIEDYRHEFVLAMRAKKLDALVCPAFGCPPPHHGMPNKILGANSYPALYNLIDFAAGTVPVTVQKQEDEVELRKMKTEDSWDRRVVTESKNCIGLPVSVQIATPPYREEMCLRLLKQVEAKIGLYSRTH | not soluble
2 | MHTIELRNISKVIKNNIVLSNINYKFESGKVYGLKGRNGSGKSMLLRTISGLIRPTSGSVIIDGKELHKEIESPGNIGIVVENAGLYPDFTGFYNLKYLAGIMGQISDDEIINAIKRVGLDLYDKKIVKKYSLGMKQKIVIAQAIMEKPDFLLLDEPTNALDESGVKLLREIVQEEATRGALVIIASHNQEDIELLCDKVIIMADGKISDEYVNSREMNLCSEETQ | not soluble
3 | MGFHPRVPEGEVARRIAAVGAAIDRVIGERKRKISGQMIGRAVIRERRRCVWLERSEVPLDVIREGEAFVVRFANPDGSLGQPHQLLSSWMPGDPVLEHHHHHH | not soluble
4 | MAGDPMLTAPPKEAARPTLMPRAQSYKDLTHLPAPTGKIFVSVYNIQDETGQFKPYPASNFSTAVPQSATAMLVTALKDSRWFIPLERQGLQNLLNERKIIRAAQENGTVAINNRIPLQSLTAANIMVEGSIIGYESNVKSGGVGARYFGIGADTQYQLDQIAVNLRVVNVSTGEILSSVNTSKTILSYEVQAGVFRFIDYQRLLEGEVGYTSNEPVMLCLMSAIETGVIFLINDGIDRGLWDLQNKAERQNDILVKYRHMSVPPESLEHHHHHH | not soluble
5 | MQLEIKGKTHNVKFGTRFVAEMDKNHIAERQGFKFGAGLQSSVPFLIDHSVVTLAEVIYTGTITEPPRPSLNDIYDYIDEVEDIEKLFDDVLDELRQSNASKLFMAQVEKDLAEAKA | not soluble
6 | MTEASIKLGTTSDKLEYEVIDKGSNGFLGIGSRDAVIKVKKAEASVEDEIREFLDSVFKAMKLEVTIDIKVDEDNRNVDVELNGPEMGVLIGKRGQTLDSLQYLTNLAINKQSENYYRVKIDTEDYRKRRRETLENLAKNISFKVKRTKRPVSLEPMNPFERRVIHSALQNDRFVETHSEGDEPYRHVVVTLKK | not soluble
7 | MSLMRKNETREFLIEDIEFPAVGVAFYNDKKVYIKGAVPGQKVLARVSKVRREKIEAKLKEIVTNIPGAAQPKCPDFGVCGGCVHQFLPYEKQLEFKEREVLKLFKDAKIEGFEYLGILGSPEKEEYRNKMEYTFGDFVKGGELTLGMHAKDSGFSIVNTDKCNIVDEDFRIILKTVVEYFRKKDLPIYKVMQHVGYLRNLVVRKAKNTGEILIALVTTSQVDFDLTELTEILKSINYLGELKGILHVINDGLADMVRGDKIVTLFGQDYITERILDLKFKMSLFSFFQTNSKGAEKLYSEVLEFLGDVSNKTVFDLYCGTGTIGQLASKKAEKVIGIELIEEAVEAAKENTKLNNISNCSFIAGDVAKVITEIKEKPDTIILDPPRPGVSPNAMKYVIKFNAPEIVYVSCNPKTLVNDLGVLRAYGYEVEKVKIVDMFPGTGHVETVVLLQRKIIEGHHHHHH | soluble
8 | MEHRYRTNLKKVFLSDSELNQLNINIDQSGCKSFSEYARRTLLDPGMNFITIDTNGYQDLVFELKRIGNNINQIARSVNQSQLISGEELQELKKGIGELIKEVDKEFNLQAQKLKEFHGHH | not soluble
9 | MHGVEFAPLERQHGSQVLALLRGTLLVPLPRLHQRLEEAYERDARLGLAQVALCRLAGNAEKVVGVLLARVATRRTCCAQVYIDAVAVDAVFQGQGIGSRLLLRVLTPCLPDGLEVREVFLHTPLQATELVAFYRSCGFESDDEVIDNYYPRRWMPQAQALVLRWRPPTAAQHQHEERKGPQDADVS | not soluble
10 | MARDVKKRGKPAYTNRRNRQKYLKKKDNKKKLSKSAVPIIKYTWDETKTPRENVRDMGIAFNPNDAVPIAEHRKEIIDAEPIDGVSIVVPKPEKKVTGRKKNEKQAAHIISNLEQQVKEEEEARAGQDRKFRLFHRETELCVYMLARHGEDFQAMTRDPKNLWQYTPKQWAKKIRTHKESEMCKFLETA | not soluble
11 | MAHHHHHHMLRRVLSRGPLPQSLSVGPTSKLTVNKGKLAKSRGVHVHFLTIAECAAAAGDASAPIPPGFTGKAGEVDFQTLWTTAQDPATAESVLRKSGRKAAGARRAAEKPAELVAGMGAHSTVRDYRLAVTAAVRKAKMCNAAWVSLHPPKQDVFTMTDPYHPPQRLKSHEMVEKTAIFAVTGAYQYDRLKSGTLASKDSAQTGRTRARRAESRAKPPAAPQPPMELVVASSNAQAVRAGEVIGHCVNEARNLGNLREDEGVPEFYAEWAKKYMIPEGIKVRKVLRGQQLEEAGLHLMYNVGRGSRYEPYLVVLEYIGNPRSSATTAIVGKGVTFDCGGLNIKPYTSMETMHSDMMGAATAFCTLKAIAKLQLPINVVAAVGLVENAIGPESYHPSSIITSLKGLTVEVLNTDAEGRLVLADVLTYVQKYAPLDKKPTRIIDLATLTGAIIVGLGSRRAGLFSPSAMLANSLMAAGTQCGEELWPMPIGDEHKDMMKGGIADLINAAPGRQAGSCTAAAFLSNFVEPEVQWAHLDIAGVADVGDKPKGYEPAGVTGFGVQLLVDFLRHNKP | not soluble
12 | MSQSDEASVAEPTVVVATPVAVAVTAPATHPRKPPALVISTIACPTIYEQAPSKPASPTMPLSPYEGITADLMQRIQLFSSQFDHARLSPNYATSDLGSSARSSFSSTTSSFLTYRDRSVDFDEAGKELISPFDCDTNCSGTPYSLSTNSGNHFSFEARSVSSLGHSTAHFNQLLAAGAAYELSRERSRSESDMQPTQEDDVRHLNTSTISVPIYAKKPLHKFGGEIKRSSSTPPPTSDEREQVEQRLLLRPSSGMEIKKDLETTNSFVSSWAREQIFAMQNATMYNLLTARSAEDCSTISTPGPLKVFPRSKDDMTFAPRDDSSRAKQMQYPCTLCGQAFAVHDRLAKHIASRHRQRSCTLDDASKVHKCNMCSKSFSRSDMLTRHMRLHTGAKPYSCPTCNQVFSRSDHLSTHLRTHTGEKPYACPMCNYSASRRDMISRHMRTHSLTDDSSISTPISQLSIRSATTSPLPPKIGSTATVEIGSGLLSAFKPILSASSSNLLSVSSPFQSLSLSTPPSPSFAPIVLNRQLSFDVTMRNTTS | soluble
13 | MGSDKIHHHHHHMNIKDLKYFYHLSQLQSFTKVAEKFQISQPSVSYSVKRLEEQFNCDLIVKDPSHRTFALTQQGNILKRHLERILPEISSAQKEMNRSLAHYSTLGCPPIIINYLLSLLKETNQDLAFLKRIRSIRGGSVELLEQLLQGDLDLSLIGTIEPFYHDELVIKKILHRKLYLIVSKDHLLAKRKKAIAFADVLKENFILLDEHNIHLKAFDYLNQTHQNQAQIFFKSDDVTLIKQMVSHNMGVSLLTDISLTKQDHHLVKIPFKENNKLGFYVNYAYLKSSTLTPDIRHLVDLLDKIAQSF | not soluble
14 | MSLKSIILEDANAKLREDAHTFVFDGHAGVKGRVDFARLGSNNPIEDDWDLKIAKGVGGTKTLYAGVYDGHAGWATSQVLRNALVPYVSGALSSLTPTTSTELVDDAIQKAFVRLDNRIFDTALKAVESGLDQGTASVISAVAPAIAGSCALLTMYEPVTSTLRTAVAGDSRAVRGAWSSNANKYETDILSIDQTGFNQLEVERLDKEHPGQLHSMLNLDSGRLFGLAVTRAFGDHRLKWPAKVIRKVQDDYYGTPPRPNYTTPPYLTARPEVTTRKIQTEDFVILGSDGLWDMISNEDAVTCISRWLSAKKSGKPEPFKETKFEGKLEDGWQATPEHHVIEDLDNAAVCLVKNAFGGSRRGLFLGAMTTYAPMSRNVRDDITVQIIFFKDPYEKEGHHHHHH | soluble
15 | MNNKRTKGENVYQLVQKRLKFLFNEFDNIYVSFSGGKDSGVLLNLCIQYIREHNLDRKIGVYHMDYEAQYQMTTEYVEQTFRENQDILEIYHVCVPFKVVTCASMFQTYWRPWDESMHAHWVRPMPKNCYKKEDFPFYNEEMWDYTFQTSFASWYHKKHDAVRTCCLVGIRTQESLDRWRTIHGNNRLNSYHNLMWTRRLGYDLYNAYPIYDWTTEDIWTAYARFKWPFNQMYELYYK | not soluble
16 | GPGSTGASLGMMWKDKLNAMTKEEFTRYKRAGVMETDRKEARDYLKRGDGKTGLSVSRGTAKLAWMEERGYVELTGRVVDLGCGRGGWSYYAASRPHVMDVRAYTLGVGGHEVPRITESYGWNIVKFKSRVDIHTLPVERTDVIMCDVGESSPKWSVESERTIKILELLEKWKVKNPSADFVVKVLCPYSVEVMERLSVMQRKWGGGLVRNPYSRNSTHEMYFTSRAGGNIIGAVTACTERLLGRMARRDGPVVVPELNLGTGTR | soluble
17 | MSLAQGANAPLNIPANPQMFGTNDPNVRRATAIVNGEIITGTDVEQRLALIVSANGGKIDGEEKERLRMQVLRNLIDETLQIQEAKAADVPADDGQVDASYERVATQNFGQSADALEKYLARIGSSAASLKRQIRGEIAWQNLLRRNVQPFVNVSEGEVQEAMQRLQASKGTEEYRIGEIFLAATEENKPQVFANAEKIVEQLKQGGSFVAYARQYSEASTAAVGGDLGWIRLAQLPTELATTAASMGPGQLAGPVEIRGGFSILYLIDKREGHHHHHH | soluble
18 | MGSDKIHHHHHHMNLKQLEYFMHVAELGSFSKAAMVLDVAQPALSRQVRGLETELRQQLFLRNGRGVALTEAGRRLFDHSVAIMQMVAHAREDLGASRDAPVGRVTIGLPPSIARQLTLPLIDHFKRTLPSARLAIVEGLSSHIIEWVTTGRADVGLVYNPDAQPGIEITPLLQEPLGLVSYAPPSKRRGAAAPLPFKELSKYPLIVPERVHAMRRLLENEAALAGVKLDIAWEVSSVPSIIELVCAGYGHAVLTRSGVAASPRAAELVMRPLIEPAPASALCLVVSATRRPTPLAQHSMRMLTDLVRTLPT | not soluble
19 | MKRQRVVVKIGSSSLTDPKGGLCHDKLFDHVEAIAYLKQLGHDVILITSGAVAAGFGPLGYPARPTTIAGKQAAAAVGQSLLMQAYSSAFAQFGFTAAQLLLTRSDFYSRERFRNLFATITTLLENGAVPIINENDSVSIEELTFGDNDMLSALVAGFLHADALILLTDINGLYDANPKTNPQAKKYAFLPEITDEMIEAAGGIGSAVGTGGMRSKLLAARKALSFGVSVFIGAGSGKEKLADILAGKGDGTYIGAPFPKQMQMRKQWIAYHAPVAGTVTVDSGAEEALLMRGKSLLPAGVTAVSGDFHAMDVVDVVNEKGITIGRGQVYYAAADLEKVKGLPSEEARQYSYLHRPEVIHRDNWVTLRKESVSK | not soluble
20 | MAHHHHHHMVNLRLQVAVVGAPTVGKTAFVQMLHSNGTTFPKNYLMTLGCDFIVKEVPVDDDNTVEMIIFDVSGQREYEPMVSSYLQNTAVFIVMYDVSNKVTFEACARWVNQVRTNSKESVGILIANKSDLSDKAEVTDRQGKDLANANKMKFYKISTLRGVGITEPIDEIARHYVDAYQKRIEQLTQMR | not soluble
21 | SEKVNQTFFLSHGSPTLSIDDSLEARQFFKSWTQKVLPQKPKSILVISAHWDTKFPSVNTVLRNNTIHDFSGFPDPMYKLKYEAPGAIELGKRVKELLMKEGGMKRVDEDTKRGLDHGAWVPLMLMYPEADIPICQLSVQSNQNGSYHYNMGKALASLKDEGVLIIGSGSATHNLRKLDFNITDGSPVPWALEFDHWLRDSLLQGRYGDVNEWEEKAPNAKMAHPWPEHLYPLHVVMGAAGGDAKAEQIHTSWQLGTLSYSSYSFTSSL | soluble
